Measurements from US20230287143A1 (published 2023).

Target: human PD-L1 (human, UniProt Q9NZQ7 19-290)
Test: FACS

human PD-L1, sequence (Q9NZQ7 19-290): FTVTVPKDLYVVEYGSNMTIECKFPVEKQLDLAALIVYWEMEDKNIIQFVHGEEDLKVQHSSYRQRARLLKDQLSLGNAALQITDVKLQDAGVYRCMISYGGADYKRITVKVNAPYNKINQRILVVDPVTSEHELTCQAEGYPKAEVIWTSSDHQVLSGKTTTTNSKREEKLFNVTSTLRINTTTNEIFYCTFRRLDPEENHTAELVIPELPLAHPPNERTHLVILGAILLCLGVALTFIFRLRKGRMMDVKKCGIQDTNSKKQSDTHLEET

B1: PR004268, PD-L1×4-1BB bispecific binding protein with the VH-IgG structure (structure 4) (bispecific antibody)
light: DIQMTQSPSTLSASVGDRVTVTCRASQSIYIWLAWYQQKPGKAPNLLIYKASSLETGVPSRFSGSGSGTEFTLTISSLQPDDFATYYCQQYYGSSRTFGQGTKVEIKRTVAAPSVFIFPPSDEQLKSGTASVVCLLNNFYPREAKVQWKVDNALQSGNSQESVTEQDSKDSTYSLSSTLTLSKADYEKHKVYACEVTHQGLSSPVTKSFNRGEC
heavy: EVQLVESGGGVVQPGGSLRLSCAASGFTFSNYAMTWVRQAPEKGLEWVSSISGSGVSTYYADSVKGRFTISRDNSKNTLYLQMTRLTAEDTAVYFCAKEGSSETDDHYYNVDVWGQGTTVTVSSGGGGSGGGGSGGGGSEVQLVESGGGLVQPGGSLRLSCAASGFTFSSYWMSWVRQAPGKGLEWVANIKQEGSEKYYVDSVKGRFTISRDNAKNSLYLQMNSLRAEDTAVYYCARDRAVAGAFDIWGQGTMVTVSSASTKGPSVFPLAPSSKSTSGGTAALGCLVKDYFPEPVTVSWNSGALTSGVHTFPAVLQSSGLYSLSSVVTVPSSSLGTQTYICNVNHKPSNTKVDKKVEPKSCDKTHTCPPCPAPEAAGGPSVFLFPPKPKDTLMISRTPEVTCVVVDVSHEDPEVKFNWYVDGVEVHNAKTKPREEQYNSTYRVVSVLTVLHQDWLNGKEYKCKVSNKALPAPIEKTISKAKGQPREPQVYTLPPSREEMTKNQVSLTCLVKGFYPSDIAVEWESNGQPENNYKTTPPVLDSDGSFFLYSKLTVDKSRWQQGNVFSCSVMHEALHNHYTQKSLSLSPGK
- EC50: 1.2 nM
